According to article PMC10036535, “A naturally occurring mini-alanyl-tRNA synthetase”:

Tests used:
[1] = tested on: TuAlaRS (Tupanvirus (of Acanthamoeba castellanii)); experiment: EMSA; conditions: none (in vitro transcript)
[2] = target: T1, EcAlaRS (Escherichia coli, UniProt P00957 1-876); experiment: EMSA; 5 mM Mg2+; hardly affected vs WT; EMSA: 20 mM HEPES pH 7.5, 20 mM KCl, 5 mM MgCl2, 2 mM DTT, 0.1 µM RNA, 10 min on ice, protein 0.0625-32 µM; 5% native PAGE, 0.5x TBE, 4 °C; conditions: protein: recombinant; label: 5'-32P; tRNA cloverleaf
T1 sequence: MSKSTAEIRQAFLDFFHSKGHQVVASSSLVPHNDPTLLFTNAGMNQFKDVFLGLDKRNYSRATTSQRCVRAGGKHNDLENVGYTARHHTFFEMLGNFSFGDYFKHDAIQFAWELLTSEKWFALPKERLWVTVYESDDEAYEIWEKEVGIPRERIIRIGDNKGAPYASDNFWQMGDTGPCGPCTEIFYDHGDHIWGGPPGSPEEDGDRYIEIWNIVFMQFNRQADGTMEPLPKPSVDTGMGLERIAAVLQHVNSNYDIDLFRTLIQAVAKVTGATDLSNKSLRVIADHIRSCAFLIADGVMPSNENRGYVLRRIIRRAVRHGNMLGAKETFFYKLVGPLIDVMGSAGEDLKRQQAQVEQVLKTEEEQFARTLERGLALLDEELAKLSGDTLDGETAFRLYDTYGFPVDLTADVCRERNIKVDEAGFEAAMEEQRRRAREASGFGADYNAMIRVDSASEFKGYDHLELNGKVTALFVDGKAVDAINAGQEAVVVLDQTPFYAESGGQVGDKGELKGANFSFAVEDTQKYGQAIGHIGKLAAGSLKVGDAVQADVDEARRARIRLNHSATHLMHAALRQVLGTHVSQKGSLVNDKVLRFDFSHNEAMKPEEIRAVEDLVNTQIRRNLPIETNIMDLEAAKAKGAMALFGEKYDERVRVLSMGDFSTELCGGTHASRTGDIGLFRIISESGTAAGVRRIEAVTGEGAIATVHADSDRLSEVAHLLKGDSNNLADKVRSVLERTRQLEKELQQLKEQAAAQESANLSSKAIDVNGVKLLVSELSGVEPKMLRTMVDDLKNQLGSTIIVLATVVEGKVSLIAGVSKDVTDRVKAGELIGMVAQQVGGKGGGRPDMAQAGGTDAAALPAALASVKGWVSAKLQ

[3] = target: T1, EcAlaRS; experiment: EMSA; 5 mM Mg2+; EMSA: 20 mM HEPES pH 7.5, 20 mM KCl, 5 mM MgCl2, 2 mM DTT, 0.1 µM RNA, 10 min on ice, protein 0.0625-32 µM; 5% native PAGE, 0.5x TBE, 4 °C; conditions: protein: recombinant; label: 5'-32P; tRNA cloverleaf

Molecule: GGGGCUAUAGCUUCUAGCUCCACCA [Ec-microAla]
- Kd [1]: 300 nM

Molecule: GGGGCUAUAGCUUCUAGCCCCACCA [Ec-microAla G3:C70]
- Kd fold increase vs WT (fold increase in Kd vs WT) [1]: 3

Molecule: GGGGCUAUAGCUCAGCUGGGAGAGCGCCUGCUUUGCAAGCAGGAGGUCUGCGGUUCGAUCCCGCAUAGCUCCACCA [EctRNAAla]
- Kd [1]: 300 nM

Molecule: GGAGCUAUAGCUUCUAGCUCCACCA [Ec-microAla A3:U70]
- Kd fold increase vs WT (fold increase in Kd vs WT) [1]: 3

Molecule: GGGAUUUUAGCUUCUAAUUCUACCA [Ce-microAla]
- Kd [1]: 400 nM

B1: EctRNAAla CCA to UUG (structured_RNA)
RNA: GGGGCUAUAGCUCAGCUGGGAGAGCGCCUGCUUUGCAAGCAGGAGGUCUGCGGUUCGAUCCCGCAUAGCUCCAUUG
modifications: none (in vitro transcript)
- binding result [2]: binds

B2: EctRNAAla (structured_RNA)
RNA: GGGGCUAUAGCUCAGCUGGGAGAGCGCCUGCUUUGCAAGCAGGAGGUCUGCGGUUCGAUCCCGCAUAGCUCCACCA
modifications: none (in vitro transcript)
- Kd [3]: 1000 nM

B3: EctRNAAla delCCA (structured_RNA)
RNA: GGGGCUAUAGCUCAGCUGGGAGAGCGCCUGCUUUGCAAGCAGGAGGUCUGCGGUUCGAUCCCGCAUAGCUCCA
modifications: none (in vitro transcript)
- binding result [2]: binds
